Key:
14-3-3γ and PPARγ2 = target: T1, 14-3-3γ and PPARγ2 (Homo sapiens, UniProt P37231); experiment: Competitive GST-pull down assay, 14-3-3γ / PPARγ2 binding under 14-3-3β overexpression; conditions: as expression amount of 14-3-3β was increased (HA-14-3-3β DNA 2 and 4 μg); 10 μM pioglitazone; FIG. 5B
T1 construct: expressed in transfected cells; host or cells: HEK-293T
T1 sequence (P37231 1-505): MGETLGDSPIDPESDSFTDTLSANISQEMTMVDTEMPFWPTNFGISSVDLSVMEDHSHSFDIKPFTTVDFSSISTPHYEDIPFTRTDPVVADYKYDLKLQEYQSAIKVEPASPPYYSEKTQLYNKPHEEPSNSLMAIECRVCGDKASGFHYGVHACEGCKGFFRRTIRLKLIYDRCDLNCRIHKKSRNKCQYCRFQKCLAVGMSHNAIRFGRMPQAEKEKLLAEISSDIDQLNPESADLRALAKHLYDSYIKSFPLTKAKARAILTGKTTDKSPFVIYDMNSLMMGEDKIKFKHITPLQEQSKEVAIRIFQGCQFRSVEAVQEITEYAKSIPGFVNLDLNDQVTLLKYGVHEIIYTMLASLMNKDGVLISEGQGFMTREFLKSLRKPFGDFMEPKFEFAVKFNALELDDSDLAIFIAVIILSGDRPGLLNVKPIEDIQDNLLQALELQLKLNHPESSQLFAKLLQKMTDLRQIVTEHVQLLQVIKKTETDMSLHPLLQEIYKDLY
T1 sequence (P31946 1-246 partner): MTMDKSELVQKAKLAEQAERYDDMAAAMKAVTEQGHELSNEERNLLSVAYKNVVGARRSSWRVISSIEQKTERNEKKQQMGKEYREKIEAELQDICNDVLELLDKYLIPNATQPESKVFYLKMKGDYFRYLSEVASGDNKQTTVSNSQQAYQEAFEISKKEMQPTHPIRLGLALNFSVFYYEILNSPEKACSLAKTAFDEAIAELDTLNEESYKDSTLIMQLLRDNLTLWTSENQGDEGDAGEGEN
Experimental: (§1) From the previous experimental results, it was verified that 14-3-3β and 14-3-3γ were bound to the phosphorylated serine 273 residue of PPARγ2, and it was determined that the two proteins would competitively bind to the same residue. Thus, GST-pull down assay was carried out to verify competitive binding of 14-3-3β and 14-3-3γ with PPARγ2.
(§2) HEK-293T cells were seeded in a 100 mm plate at a density of 2×10^6 cells per each well, and then transfected with mGST-PPARγ2DNA (4 μg), GFP-14-3-3β DNA (4 μg) or GFP-14-3-3γ DNA (4 μg), and HA-14-3-3β DNA (2 and 4 μg) or HA-14-3-3γ DNA (2 and 4 μg) using an E-fection plus reagent (Lugen). A ratio of DNA to the E-fection plus reagent was 1:2 and this method was performed according to a manufacturer's manual. After transfection, the corresponding cells were treated with 10 μM of pioglitazone (Pio, Santa Cruz) for 24 hours, washed with ice-cold PBS, and lysed using 500 μl/well of a lysis buffer (150 mM NaCl, 1 mM EDTA, 1% Nonidet P-40, 5% glycerol, 25 mM tris-HCl, pH 7.5, protease inhibitor added), and the lysed cells were centrifuged at 10,000×g and 4° C. for 10 minutes to extract proteins. […]

14-3-3β and PPARγ2 = target: T2, 14-3-3β and PPARγ2 (Homo sapiens, UniProt P37231); experiment: Competitive GST-pull down assay, 14-3-3β / PPARγ2 binding under 14-3-3γ overexpression; conditions: as expression amount of 14-3-3γ was increased (HA-14-3-3γ DNA 2 and 4 μg); 10 μM pioglitazone; FIG. 5A
T2 construct: expressed in transfected cells; host or cells: HEK-293T
T2 sequence (P37231 1-505): T1 sequence (P37231 1-505)
T2 sequence (P31946 1-246 partner): T1 sequence (P31946 1-246 partner)
Experimental: as §1, §2

| binding between 14-3-3γ and PPARγ2 (14-3-3γ and PPARγ2) | binding between 14-3-3β and PPARγ2 (14-3-3β and PPARγ2) | Substance |
| --- | --- | --- |
| reduced | – | 14-3-3β: 14-3-3 isoform protein, overexpressed by DNA transfection; regulating factor that increases transcriptional activity of PPARγ2 |
| – | reduced | 14-3-3γ: 14-3-3 isoform protein, overexpressed by DNA transfection; regulating factor that decreases transcriptional activity of PPARγ2 |

Source: US20180207294A1, “NON-ALCOHOLIC FATTY LIVER REGULATING FACTOR 14-3-3 PROTEIN” (Korea University Research and Business Foundation, priority 2015, published 2018)
